Source: patent publication US20030105292A1

Key:
G protein Gi [1] = target: G protein Gi
Gs protein [2] = target: Gs protein
G protein Gi [3] = target: G protein Gi; remark: listed apart in the source
Gs protein [4] = target: Gs protein; remark: listed apart in the source

How did the luciferase, CRE-Luc reporter in 293 cells co-transfected with GPR6 at a 1:4 ratio (relative light units) (G protein Gi [1]) turn out when endogenous human GPR30 (receptor) was run?
Its luciferase, CRE-Luc reporter in 293 cells co-transfected with GPR6 at a 1:4 ratio (relative light units) is 104.

For “endogenous, constitutively activated GPR6 (from UniProt P46095) (receptor)”, which luciferase, CRE-Luc reporter in 293 cells (relative light units) (Gs protein [2]) is on record?
Its luciferase, CRE-Luc reporter in 293 cells (relative light units) is 104.

For “non-endogenous human ETBR-LP2 (N358K) (receptor)”, which luciferase, AP1 reporter assay in 293T cells; Per-Cent Difference of the non-endogenous against the endogenous GPCR (G protein Gq) is on record?
The luciferase, AP1 reporter assay in 293T cells; Per-Cent Difference of the non-endogenous against the endogenous GPCR was 61.1%.

What about the luciferase, AP1 reporter assay in 293 cells; Per-Cent Difference of the non-endogenous against the endogenous GPCR (G protein Gq) of the same molecule?
The luciferase, AP1 reporter assay in 293 cells; Per-Cent Difference of the non-endogenous against the endogenous GPCR was 48.4%.

“non-endogenous, constitutively activated GPR17 (V234K) (receptor)” was tested. Which luciferase, 8xCRE-Luc reporter in 293 cells co-transfected with GPR3; Per-Cent Difference of the non-endogenous against the endogenous GPCR (G protein Gi [3]) did it give?
The luciferase, 8xCRE-Luc reporter in 293 cells co-transfected with GPR3; Per-Cent Difference of the non-endogenous against the endogenous GPCR was 74.5%.

Which luciferase, CRE-Luc reporter in 293 cells co-transfected with GPR6; Per-Cent Difference of the non-endogenous against the endogenous GPCR (G protein Gi [3]) does the source give for “non-endogenous, constitutively active GPR30 (L258K) (receptor)” here?
Its luciferase, CRE-Luc reporter in 293 cells co-transfected with GPR6; Per-Cent Difference of the non-endogenous against the endogenous GPCR is 71.6%.

B1: non-endogenous human GHSR (V262K) (receptor)
chain: MWNATPSEEPGFNLTLADLDWDASPGNDSLGDELLQLFPAPLLAGVTATCVALFVVGIAGNLLTMLVVSRFRELRTTTNLYLSSMAFSDLLIFLCMPLDLVRLWQYRPWNFGDLLCKLFQFVSESCTYATVLTITALSVERYFAICFPLRAKVVVTKGRVKLVIFVIWAVAFCSAGPIFVLVGVEHENGTDPWDTNECRPTEFAVRSGLLTVMVWVSSIFFFLPVFCLTVLYSLIGRKLWRRRRGDAVVGASLRDQNHKQTKKMLAVVVFAFILCWLPFHVGRYLFSKSFEPGSLEIAQISQYCNLVSFVLFYLSAAINPILYNIMSKKYRVAVFRLLGFEPFSQRKLSTLKDESSRAWTESSINT
What does the source list for B1?
luciferase, CREB reporter assay in 293T cells; Per-Cent Difference of the non-endogenous against the endogenous GPCR (Gs protein [4]): 35.6%; luciferase, CREB reporter assay in 293 cells; Per-Cent Difference of the non-endogenous against the endogenous GPCR (Gs protein [4]): 58.9%

B2: non-endogenous human APJ (L247K) (receptor)
chain: MEEGGDFDNYYGADNQSECEYTDWKSSGALIPAIYMLVFLLGTTGNGLVLWTVFRSSREKRRSADIFIASLAVADLTFVVTLPLWATYTYRDYDWPFGTFFCKLSSYLIFVNMYASVFCLTGLSFDRYLAIVRPVANARLRLRVSGAVATAVLWVLAALLAMPVMVLRTTGDLENTTKVQCYMDYSMVATVSSEWAWEVGLGVSSTTVGFVVPFTIMLTCYFFIAQTIAGHFRKERIEGLRKRRRLKSIIVVLVVTFALCWMPYHLVKTLYMLGSLLHWPCDFDLFLMNIFPYCTCISYVNSCLNPFLYAFFDPRFRQACTSMLCCGQSRCAGTSHSSSGEKSASYSSGHSQGPGPNMGKGGEQMHEKSIPYSQETLVVD
How did the [35S]GTPgammaS binding to membranes expressing the receptor; Per-Cent Difference of the non-endogenous against the endogenous GPCR (G protein) turn out when B2 was run?
The [35S]GTPgammaS binding to membranes expressing the receptor; Per-Cent Difference of the non-endogenous against the endogenous GPCR was 49%.
